# Source: patent US20110126299A1 (published 2011)
# Target: Id(λ2^315)-peptide (amino acids 91 to 101) presented on I-E^d (mouse, UniProt P01904 26-216; P01915 32-225)
# Experiment: cell-based or functional assay
# Chain of Id(λ2^315)-peptide (amino acids 91 to 101) presented on I-E^d (P01904 26-216, chain 1 of 2): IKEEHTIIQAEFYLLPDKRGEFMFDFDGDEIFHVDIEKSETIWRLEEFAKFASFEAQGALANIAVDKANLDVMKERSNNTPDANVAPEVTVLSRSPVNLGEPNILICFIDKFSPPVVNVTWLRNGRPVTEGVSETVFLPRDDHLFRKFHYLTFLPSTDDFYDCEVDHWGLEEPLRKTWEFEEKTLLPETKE
# Chain of Id(λ2^315)-peptide (amino acids 91 to 101) presented on I-E^d (P01915 32-225, chain 2 of 2): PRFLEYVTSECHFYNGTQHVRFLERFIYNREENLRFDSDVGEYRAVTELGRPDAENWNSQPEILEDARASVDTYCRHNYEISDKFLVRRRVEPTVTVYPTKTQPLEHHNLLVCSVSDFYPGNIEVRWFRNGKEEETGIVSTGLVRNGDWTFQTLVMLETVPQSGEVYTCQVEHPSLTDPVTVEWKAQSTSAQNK
binder,measurement,value
"Id-specific αβ TCR specific for the Id(λ2^315)-peptide (amino acids 91 to 101) presented on I-E^d (TCR, V domains shown) V domain 1: QQKVQQSPESLIVPEGAMTSLNCTFSDSASQYFAWYRQQSGKAPKALMSIFSNGEKEEGRFTIHLNKASLHFSLHIRDSQPSDSALYLCAVRGPNTGNYKYVFGAGTRLKVIA V domain 2: EAAVTQSPRNKVAVTGGKVTLSCNQTNNHNNMYWYRQDTGHGLRLIHYSYGAGSTEKGDIPDGYKASRPSQENFSLILELATPSQTSVYFCASGDAGQGHSDYTFGSGTRLLVI","light emissions (NF-κB-luciferase bioluminescence in vivo, 24 hours after transfer of Id^+ splenocytes into RAG2^-/^- mice carrying Id-specific Luc^+ T cells)",4 fold
